Measured values: patent US20040106105A1 (published 2004)
Where a chain is given by its changes, count along the chain named. Names and notes keep the numbering of the source. Values joined by “and” are separate entries in the source; they are usually repeats but may differ in a detail not shown here. Equal entries are not always repeated.

B1: Fab S20 HCDR3 mutant Arg95Asp (Fab, V domains shown)
VH: LESGGGVVQPGRSLRLSCSASGFSFRDYAMHWVRQAPGKGLEWVAFIWFDGSNERYADSVKGRFTITRDNPKNTLYLQMNSLRVEDTAVYYCVRDGGSILTGFHLDYWGQGTLVTVSS
VL: ELTQSPSSLSASVGDRVTITCRASQGIRDDLGWYQQKPGKAPKRLIYAASNLQSGVPSRFSGGGSGTEFTLTISSLQPEDFATYYCLQHNSYPLTFGGGTKVEIKR
notes: The text names only S2095K for S20
B2: Fab S8 HCDR3 mutant Arg95Asp (Fab, V domains shown)
VH: B1 VH with V7L, Q9K, R12G, S19A, S24T, R26S, D27S
VL: B1 VL
B3: Fab S8 HCDR3 mutant Arg95Pro (Fab, V domains shown)
VH: B1 VH with V7L, Q9K, R12G, S19A, S24T, R26S, D27S, D95P
VL: B1 VL
B4: Fab S8 HCDR3 mutant Arg95Gly (Fab, V domains shown)
VH: B1 VH with V7L, Q9K, R12G, S19A, S24T, R26S, D27S, D95G
VL: B1 VL
B5: Fab S20 HCDR3 mutant Arg95Gly (Fab, V domains shown)
VH: B1 VH with D95G
VL: B1 VL
notes: See note of m21
B6: Fab S20 HCDR3 mutant Arg95Pro (Fab, V domains shown)
VH: B1 VH with D95P
VL: B1 VL
notes: See note of m21
B7: Fab S20 (Fab, V domains shown)
VH: B1 VH with D95R
VL: B1 VL
B8: Fab S8 (Fab, V domains shown)
VH: B1 VH with V7L, Q9K, R12G, S19A, S24T, R26S, D27S, D95R
VL: B1 VL
B9: peptide of phage clone 1r3 (peptide)
peptide: QVMRMMPNGVYC
B10: peptide of phage clone 1r9 (peptide)
peptide: HTRVLPSTAMTL
B11: peptide of phage clone 1r6 (peptide)
peptide: WTTNFADPPSST
B12: peptide of phage clone 1r2 (peptide)
peptide: FPASMPGLLLRV
B13: peptide of phage clone 1r10 (peptide)
peptide: LFQKQIESPWRS
B14: peptide of phage clone 1r4 (peptide)
peptide: QDRALITPLDQT
B15: peptide of phage clone 1r5 (peptide)
peptide: HDEFVWISIWEP
B16: peptide of phage clone 1r1 (peptide)
peptide: SGLDGMHVNSPW
B17: peptide of phage clone 1r7 (peptide)
peptide: SSCAAFWSKARP
B18: peptide of phage clone 1r8 (peptide)
peptide: CLSSNSSPPPRP
B19: peptide of phage clone 2r3 (peptide)
peptide: HGHPLKTNTHRS
B20: peptide of phage clone 2r7 (peptide)
peptide: SVSPNMRMLHWW
B21: peptide of phage clone 2r10 (peptide)
peptide: NYFQQPPERHSS
B22: peptide of phage clone 2r1 (peptide)
peptide: HTKCSDASCPLI
B23: peptide of phage clone 2r9 (peptide)
peptide: TTGDHRAFWLGG
B24: peptide of phage clone 2r4 (peptide)
peptide: MPNPRQNPPPPL
B25: peptide of phage clone 2r5 (peptide)
peptide: NFQTPDRTQSNL
B26: peptide of phage clone 2r6 (peptide)
peptide: FYTPTMHSYGIQ
B27: peptide of phage clone 3r1 (peptide)
peptide: SAKPSYQPYAQP
B28: peptide of phage clone 3r4 (peptide)
peptide: KAPIPSSIPGFR
B29: peptide of phage clone 3r9 (peptide)
peptide: MQSQLYRDSPRG
B30: peptide of phage clone 3r7 (peptide)
peptide: HASTPSSPWSRP
B31: peptide of phage clone 3r3 (peptide)
peptide: HIETLLPAPELS
B32: peptide of phage clone 3r5 (peptide)
peptide: GTTQNAMSLARL
B33: peptide of phage clone 3r10 (peptide)
peptide: LPNATKLAPISP
B34: peptide of phage clone 3r6 (peptide)
peptide: QPTTPFFDWDTH
B35: peptide of phage clone 4r17 (peptide)
peptide: SASTPSSPWSRP
B36: peptide of phage clone 4r15 (peptide)
peptide: ADVMLHSKHVQM
B37: peptide of phage clone 4r5 (peptide)
peptide: WFKPPQTPLTLM
B38: peptide of phage clone 4r3 (peptide)
peptide: TAMNLGPALFRT
B39: peptide of phage clone 4r10 (peptide)
peptide: TMQPYKSWWSSK
B40: peptide of phage clone c72R4 (peptide)
peptide: SAMEAPP
notes: also called 4c7

target: T1, recombinant gp120 III-B (HIV-1 III-B, UniProt P04578 33-511); experiment: ELISA on gp120 III-B
T1 construct: domain: gp120; also called gp120 III-B (LAI); HIV-1 gp120
Experimental: Soluble Fabs from each resulting HC/LC pair were tested for binding to gp120 Ill-B and BSA in ELISA a s above. […] Soluble Fabs from each mutant were tested for binding to gp120 III-B and BSA in ELISA as above.

| Binder | binding result |
| --- | --- |
| B1 | no binding |
| B2 | no binding |
| B3 | no binding |
| B4 | no binding |
| B5 | no binding |
| B6 | no binding |

target: gp120 of HIV-1 MN strain (HIV-1 MN, UniProt P05877 32-513); experiment: cell-based or functional assay

| Binder | % neutralisation, neutralisation plaque assay (NPA) in MT-4 cells | % neutralisation, infectivity reduction assay (IRA) in MT-2 cells |
| --- | --- | --- |
| B7 | 90 % neutralisation at 20 µg/ml | – |
| B8 | 90 % neutralisation at 20 µg/ml | 50 % neutralisation at 1 µg/ml and > 90 % neutralisation at 10 µg/ml |

target: gp120 of HIV-1 RF strain (HIV-1 RF, UniProt P04579 32-519); experiment: cell-based or functional assay

| Binder | % neutralisation, infectivity reduction assay (IRA) in MT-2 cells |
| --- | --- |
| B8 | 50 % neutralisation at 1 µg/ml and > 90 % neutralisation at 10 µg/ml |

target: gp120 of HIV-1 SF-2 strain (HIV-1 SF-2, UniProt P03378 32-509); experiment: cell-based or functional assay

| Binder | % neutralisation, infectivity reduction assay (IRA) in MT-2 cells |
| --- | --- |
| B8 | 50 % neutralisation at 1 µg/ml and > 90 % neutralisation at 10 µg/ml |

target: B8; experiment: phage display panning on coated Fab S8, round 1, 12-mer library, 1 clone; clone not tested singly

| Binder | binding result |
| --- | --- |
| B9 | binds |
| B10 | binds |
| B11 | binds |
| B12 | binds |
| B13 | binds |
| B14 | binds |
| B15 | binds |
| B16 | binds |
| B17 | binds |
| B18 | binds |

target: B8; experiment: phage display panning on coated Fab S8, round 2, 12-mer library, 1 clone; clone not tested singly

| Binder | binding result |
| --- | --- |
| B19 | binds |
| B20 | binds |
| B21 | binds |
| B22 | binds |
| B23 | binds |
| B24 | binds |
| B25 | binds |
| B26 | binds |

target: B8; experiment: phage display panning on coated Fab S8, round 3, 12-mer library, 1 clone; clone not tested singly

| Binder | binding result |
| --- | --- |
| B27 | binds |
| B28 | binds |
| B29 | binds |
| B30 | binds |
| B31 | binds |
| B32 | binds |
| B33 | binds |
| B34 | binds |

target: B8; experiment: phage display panning on coated Fab S8, round 4, 12-mer library, 1 clone; clone not tested singly

| Binder | binding result |
| --- | --- |
| B35 | binds |
| B36 | binds |
| B37 | binds |
| B38 | binds |
| B39 | binds |

target: B8; experiment: phage display panning on coated Fab S8, round 4, 7-mer library Ph.D.-C7, 2 clones; clone not tested singly

| Binder | binding result |
| --- | --- |
| B40 | binds |
